# In patent US6916472B2, “PON3 and uses thereof” (Regents of the University of Michigan, priority 2000, dated 2005):
# Residue numbers refer to the chain shown, from its start. Numbers in names are those of the source.
# B1: human PON1: purified human PON1 (paraoxonase 1), literature study of LaDu et al. (protein, UniProt P27169 2-355, looked up)
# Serum …: AKLIALTLLGMGLALFRNHQSSYQTRLNALREVQPVELPNCNLVKGIETGSEDLEILPNGLAFISSGLKYPGIKSFNPNSPGKILLMDLNEEDPTVLELGITGSKFDVSSFNPHGISTFTDEDNAMYLLVVNHPDAKSTVELFKFQEEEKSLLHLKTIRHKLLPNLNDIVAVGPEHFYGTNDHYFLDPYLQSWEMYLGLAWSYVVYYSPSEVRVVAEGFDFANGINISPDGKYVYIAELLAHKIHVYEKHANWTLTPLKSLDFNTLVDNISVDPETGDLWVGCHPNGMKIFFYDSENPPASEVLRIQNILTEEPKVTQVYAENGTVLQGSTVASVYKGKLLIGTVFHKALYCEL
# B2: PON3: paroxonase 3 polypeptide purified from rabbit serum, 40 kDa, SEQ ID NO:8 (protein, listed as Oryctolagus cuniculus)
# chain: MAKLLLLTLLGASLAFVGERLLAFRNSFGAVQELEPVEPQNCVLIEGLENGSEDIDILPSGLAFISSGLKYPGMPNFAPDEPGKIFLIDMNEKNPRAQELEISNGFEKESFNPHGISTFIDKDHTVYLYVVNHPHMKSTVEIFKFEEQQRSLVHLKTIKHELLKSVNNIVVLGPEQFYATRDHYFTNYVLALLEMFLDLHWTSVLFYSPKEVKVVAKGFSSANGITVSLDKKYVYVADATAKNVHVMEKHDNWDLTELKVIHLDTLVDNLSVDPATGDILAGCHPNGMKLLNYNPEDPPGSEVLRIQNVLSEKPRVSTVYTNDGSVLQGSTVASVYQGKILIGTIFHKTLYCVL
# B3: K243H: site-directed single amino acid change mutant of rabbit PON3, SEQ ID NO:12 (protein, listed as Oryctolagus cuniculus)
# chain: B2 chain with K242H
# B4: L281W: site-directed single amino acid change mutant of rabbit PON3, SEQ ID NO:14 (protein, listed as Oryctolagus cuniculus)
# chain: B2 chain with L280W
# B5: rPON3: recombinant rabbit PON3 expressed in 293T cells or E. coli BL21(DE3) (protein)
# chain: AKLLLLTLLGASLAFVGERLLAFRNSFGAVQELEPVEPQNCVLIEGLENGSEDIDILPSGLAFISSGLKYPGMPNFAPDEPGKIFLIDMNEKNPRAQELEISNGFEKESFNPHGISTFIDKDHTVYLYVVNHPHMKSTVEIFKFEEQQRSLVHLKTIKHELLKSVNNIVVLGPEQFYATRDHYFTNYVLALLEMFLDLHWTSVLFYSPKEVKVVAKGFSSANGITVSLDKKYVYVADATAKNVHVMEKHDNWDLTELKVIHLDTLVDNLSVDPATGDILAGCHPNGMKLLNYNPEDPPGSEVLRIQNVLSEKPRVSTVYTNDGSVLQGSTVASVYQGKILIGTIFHKTLYCVL
# Experiments:
# [1] = test system: mice given LD100 dose of LPS; conditions: cited from earlier work
# LDL = assay: Protection of LDL against copper-induced oxidation (conjugated dienes, lipid peroxides); format: biochemical, rabbit; conditions: LDL 0.1 mg protein/ml, 2-10 μM CuSO4, up to 5 h at 37° C.
# Protocol: In one illustrative example (Example 5) of the present invention, the ability of PON3 to protect against LDL oxidation was assayed. In this example, LDL oxidation was induced by the incubation of the lipoprotein with 2-10 μM CuSO4 in the air, in the absence or presence of PON3 or PON 1, for up to 5 h at 37° C. The kinetics of lipoprotein oxidation was followed by monitoring the conjugated dienes formation at 234 nm (Esterbauer et al., Free Radical Res Commun, 6:67-75 [1989]) using a quartz microtiter plate in a SPECTRAmax® 190 plate reader (Molecular Devices). Lipoprotein oxidation was also determined by the lipid peroxides test, which analyzes lipid peroxides by their capacity to convert iodide to iodine, as measured photometrically at 365 nm (E1-Saadani et al., J Lipid Res, 30:627-630 [1989]).
# LDL were isolated by ultracentrifugation as described above (Example 4). […] The kinetics of lipoprotein oxidation was followed by monitoring the conjugated dienes formation at 234 nm (Esterbauer et al., Free Radical Res Commun, 6:67-75 [1989]) using a quartz microtiter plate in a SPECTRAmax 190 plate reader (Molecular Devices). Lipoprotein oxidation was also determined by the lipid peroxides test, which analyzes lipid peroxides by their capacity to convert iodide to iodine, as measured photometrically at 365 nm (E1-Saadani et al., J Lipid Res, 30:627-630 [1989]).
# [2] = Lactonase activity of wild type and mutant rPON3 in expression media of transfected 293T cells; format: biochemical; conditions: Lovastatin hydrolysis; based on quantitation of western blot
# Protocol: The hydrolysis of the statin lactones (mevastatin, lovastatin and simvastatin) was analyzed by high performance liquid chromatography (HPLC) using a Beckman System Gold HPLC with a Model 126 Programmable Solvent Module, a Model 168 Diode Array Detector set at 238 nm, a Model 7125 Rheodyne manual injector valve with a 20 μl loop, and a Beckman ODS Ultrasphere column (C 18, 250×4.6 mm, 5 μm). Lovastatin (Mevacor) and simvastatin were purchased as 20 mg tablets from Merck, from which the lactones were extracted with chloroform, evaporated to dryness and redissolved in methanol. Mevastatin was purchased from Sigma. […]
# Samples were eluted isocratically at a flow rate of 1.0 ml/min with a mobile phase consisting of the following: A=acetic acid/acetonitrile/water (2:249:249, v/v/v) and B=acetonitrile, in A/B ratios of 50/50, 45/55 and 40/60 for mevastatin, lovastatin and simvastatin, respectively. […] Response factors for the acid products were calculated from the peak heights after complete alkaline hydrolysis of the lactones in 0.02 M NAOH for 2-24 hours at 25° C.
# Expression media from the transient transfection of mutant clones into 293T cells was analyzed for activity towards the lactone Lovastatin up to 4 days post transfection.
# Specific activities were calculated based on quantitation of the western blot in FIG. 10. […]
# [3] = Statinase activity of samples of BL21(DE3) culture expressing rPON3; format: biochemical; conditions: culture sample
# Protocol: The hydrolysis of the statin lactones (mevastatin, lovastatin and simvastatin) was analyzed by high performance liquid chromatography (HPLC) using a Beckman System Gold HPLC with a Model 126 Programmable Solvent Module, a Model 168 Diode Array Detector set at 238 nm, a Model 7125 Rheodyne manual injector valve with a 20 μl loop, and a Beckman ODS Ultrasphere column (C 18, 250×4.6 mm, 5 μm). Lovastatin (Mevacor) and simvastatin were purchased as 20 mg tablets from Merck, from which the lactones were extracted with chloroform, evaporated to dryness and redissolved in methanol. Mevastatin was purchased from Sigma.
# In a final volume of 1 ml, 10-200 μl of enzyme solution and 10 μl of substrate solution in methanol (0.5 mg/ml) were incubated at 25° C. in 50 mM Tris/HCl (pH 7.6), 1 mM CaCl2. Aliquots (100 μl) were removed at specified times and added to acetonitrile (100 μl), vortexed, and centrifuged for one minute at maximum speed (Beckman microfuge). The supernatants were poured into new tubes, capped and stored on ice until HPLC analysis.
# Samples were eluted isocratically at a flow rate of 1.0 ml/min with a mobile phase consisting of the following: A=acetic acid/acetonitrile/water (2:249:249, v/v/v) and B=acetonitrile, in A/B ratios of 50/50, 45/55 and 40/60 for mevastatin, lovastatin and simvastatin, respectively. Under the above conditions the retention times for the carboxylic acid formed and the lactone substrate were as follows: 4.5/6.4 min (mevastatin), 4.4/5.6 min (lovastatin) and 5.4/7.7 min (simvastatin), respectively. Response factors for the acid products were calculated from the peak heights after complete alkaline hydrolysis of the lactones in 0.02 M NAOH for 2-24 hours at 25° C.
# This Example describes the expression of rabbit PON3 protein in bacteria. The endogenous NcoI site at the translation start site, and an engineered XhoI site in the 3′ UTR were used to clone the rPON3 cDNA into the bacterial expression vector pET24d+. The resulting vector (prPON3/pET24d) was transformed into bacterial BL21(DE3) cells. LB broth supplemented with […] Kanamycin was inoculated with a single colony and the bacteria were grown at 37° C. When the culture reached an OD600 of 0.7, IPTG (1 mM) was added and growth continued. Samples of the culture were taken at the time of induction and 1, 2, 4, and 16 hours post-induction. Samples were electrophoresed through a 10% SDS-PAGE gel and Western blotted with a human PON1 antibody. An inducible, 40 kDa band was visible in the 1, 2, 4, and 16 time point lanes that aligned with a rPON3 standard. The samples were also assayed and found to have 257, 8663, 6178, 5872, and 8436 U/ml statinase activity for time points 0, 1, 2, 4, and 16 respectively.
molecule,measurement,setting,value
B1,"survival, pretreated animals",[1]; i.p. injection before LD100 dose of LPS,60%
same,"survival, post-treated animals",[1]; i.p. injection up to 2 hours after LD100 dose of LPS,30%
B2,"inhibiting conjugated diene and lipid peroxide formation, compared with PON1",LDL,significantly better
B3,specific activity compared to the wild type (fraction),[2],about ⅓
B4,specific activity compared to the wild type (fraction),[2],about ⅓
B5,statinase activity,[3]; 1 hour post-induction,8663 U/ml
same,statinase activity,[3]; 2 hours post-induction,6178 U/ml
same,statinase activity,[3]; 4 hours post-induction,5872 U/ml
same,statinase activity,[3]; 16 hours post-induction,8436 U/ml
same,statinase activity,[3]; time point 0 (time of IPTG induction),257 U/ml
